Drawing on article PMC1931440, this text covers fold adherence to collagen over the negative control (E. coli with pCC1.3) for three substances.

The experiment concerns the target murine type IV collagen (murine) (UniProt P02463). The experiment is described as follows: adherence of recombinant bacteria to collagen-coated wells; intact E. coli EPI300 expressing Hag (~10^7 CFU in PBS with 0.15% gelatin) added to BioCoat murine type IV collagen wells with tissue culture medium; centrifuged 165 x g 5 min; 1 hr at 37°C, 7.5% CO2; washed five times; fixed, crystal violet; bacteria counted per microscopic field, normalized by CFU; negative control E. coli with pCC1.3.
Chain of UniProt P02463 (P02463 173-1669, chain 1 of 2): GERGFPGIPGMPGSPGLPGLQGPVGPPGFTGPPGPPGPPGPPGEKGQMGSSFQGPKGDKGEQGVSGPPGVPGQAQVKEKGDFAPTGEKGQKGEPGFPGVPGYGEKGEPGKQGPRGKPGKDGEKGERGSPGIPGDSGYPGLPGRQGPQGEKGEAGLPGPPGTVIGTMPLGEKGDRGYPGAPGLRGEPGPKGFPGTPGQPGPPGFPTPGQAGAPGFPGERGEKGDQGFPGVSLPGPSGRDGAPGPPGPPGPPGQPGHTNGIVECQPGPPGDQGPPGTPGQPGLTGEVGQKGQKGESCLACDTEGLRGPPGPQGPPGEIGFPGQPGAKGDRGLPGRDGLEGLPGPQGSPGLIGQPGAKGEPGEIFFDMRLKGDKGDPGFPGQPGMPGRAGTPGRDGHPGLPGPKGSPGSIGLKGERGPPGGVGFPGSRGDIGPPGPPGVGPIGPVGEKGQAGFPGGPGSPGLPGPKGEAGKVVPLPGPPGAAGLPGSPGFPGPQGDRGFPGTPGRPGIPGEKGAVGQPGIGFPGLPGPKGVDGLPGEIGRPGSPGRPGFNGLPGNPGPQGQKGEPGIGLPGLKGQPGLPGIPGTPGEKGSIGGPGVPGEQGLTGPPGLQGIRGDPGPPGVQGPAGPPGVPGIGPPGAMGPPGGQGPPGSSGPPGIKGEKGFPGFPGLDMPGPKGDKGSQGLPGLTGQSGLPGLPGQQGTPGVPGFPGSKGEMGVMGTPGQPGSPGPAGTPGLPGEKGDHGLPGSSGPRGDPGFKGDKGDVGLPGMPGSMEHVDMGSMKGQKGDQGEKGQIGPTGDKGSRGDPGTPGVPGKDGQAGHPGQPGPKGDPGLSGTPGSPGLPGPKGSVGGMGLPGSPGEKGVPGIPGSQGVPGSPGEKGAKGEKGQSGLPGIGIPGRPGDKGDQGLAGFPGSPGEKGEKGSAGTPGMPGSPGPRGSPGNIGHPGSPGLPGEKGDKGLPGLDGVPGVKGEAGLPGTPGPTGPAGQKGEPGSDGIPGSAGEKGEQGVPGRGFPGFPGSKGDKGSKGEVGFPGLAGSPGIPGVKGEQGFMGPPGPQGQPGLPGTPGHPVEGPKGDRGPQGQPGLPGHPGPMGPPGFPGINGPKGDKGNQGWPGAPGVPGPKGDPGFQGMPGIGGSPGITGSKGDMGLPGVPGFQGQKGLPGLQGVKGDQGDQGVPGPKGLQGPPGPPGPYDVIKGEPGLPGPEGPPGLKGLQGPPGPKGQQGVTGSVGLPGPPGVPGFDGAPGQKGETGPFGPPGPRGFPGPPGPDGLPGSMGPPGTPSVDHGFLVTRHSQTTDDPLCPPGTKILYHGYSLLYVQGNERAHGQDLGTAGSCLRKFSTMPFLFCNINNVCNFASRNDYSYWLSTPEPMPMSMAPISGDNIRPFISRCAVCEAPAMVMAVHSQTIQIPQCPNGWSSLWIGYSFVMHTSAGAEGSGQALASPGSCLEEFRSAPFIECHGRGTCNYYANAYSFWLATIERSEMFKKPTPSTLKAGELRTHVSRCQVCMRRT
Chain of UniProt P02463 (P08122 184-1707, chain 2 of 2, further chain): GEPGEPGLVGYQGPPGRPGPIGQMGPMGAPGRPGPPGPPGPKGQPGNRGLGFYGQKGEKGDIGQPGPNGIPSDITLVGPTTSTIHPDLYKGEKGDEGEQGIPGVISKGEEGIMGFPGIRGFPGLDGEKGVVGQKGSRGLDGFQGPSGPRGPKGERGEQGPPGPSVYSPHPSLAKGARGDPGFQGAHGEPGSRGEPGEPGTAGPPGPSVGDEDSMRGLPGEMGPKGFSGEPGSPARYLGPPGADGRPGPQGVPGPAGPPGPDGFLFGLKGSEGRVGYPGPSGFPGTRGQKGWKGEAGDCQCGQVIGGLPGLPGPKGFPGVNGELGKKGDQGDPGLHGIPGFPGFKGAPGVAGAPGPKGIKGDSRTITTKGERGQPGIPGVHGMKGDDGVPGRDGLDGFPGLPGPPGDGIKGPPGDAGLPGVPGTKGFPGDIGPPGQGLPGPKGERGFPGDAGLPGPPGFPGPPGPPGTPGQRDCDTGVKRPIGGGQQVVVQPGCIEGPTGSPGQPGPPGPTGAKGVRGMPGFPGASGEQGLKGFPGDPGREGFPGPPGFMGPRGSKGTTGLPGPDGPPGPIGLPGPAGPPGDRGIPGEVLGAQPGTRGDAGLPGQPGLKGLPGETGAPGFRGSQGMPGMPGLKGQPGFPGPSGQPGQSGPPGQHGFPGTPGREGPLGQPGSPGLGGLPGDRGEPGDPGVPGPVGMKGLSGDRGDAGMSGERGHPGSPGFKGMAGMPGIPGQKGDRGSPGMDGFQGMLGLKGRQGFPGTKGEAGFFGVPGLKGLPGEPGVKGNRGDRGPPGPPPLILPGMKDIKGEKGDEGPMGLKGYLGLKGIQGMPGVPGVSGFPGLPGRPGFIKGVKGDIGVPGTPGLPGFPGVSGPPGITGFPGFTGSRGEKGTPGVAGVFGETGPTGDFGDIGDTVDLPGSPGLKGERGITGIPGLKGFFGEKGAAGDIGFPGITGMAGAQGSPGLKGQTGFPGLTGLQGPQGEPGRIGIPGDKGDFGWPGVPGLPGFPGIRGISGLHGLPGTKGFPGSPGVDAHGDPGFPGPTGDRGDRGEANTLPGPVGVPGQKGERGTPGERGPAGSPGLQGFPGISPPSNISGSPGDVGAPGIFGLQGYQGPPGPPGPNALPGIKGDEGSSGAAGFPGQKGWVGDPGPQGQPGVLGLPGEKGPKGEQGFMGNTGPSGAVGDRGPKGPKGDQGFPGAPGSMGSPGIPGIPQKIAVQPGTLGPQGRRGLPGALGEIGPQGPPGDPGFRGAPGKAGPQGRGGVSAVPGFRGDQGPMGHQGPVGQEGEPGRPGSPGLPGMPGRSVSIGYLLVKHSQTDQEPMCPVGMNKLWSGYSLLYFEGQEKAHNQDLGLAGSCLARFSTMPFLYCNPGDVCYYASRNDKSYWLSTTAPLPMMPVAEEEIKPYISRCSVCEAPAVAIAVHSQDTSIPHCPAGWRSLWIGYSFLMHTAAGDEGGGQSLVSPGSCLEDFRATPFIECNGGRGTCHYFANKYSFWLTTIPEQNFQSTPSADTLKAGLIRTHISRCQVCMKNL
Turning to “Moraxella catarrhalis strain O12E Hag protein (natural protein)”, the fold adherence to collagen over the negative control (E. coli with pCC1.3) came to 35 fold.
Turning to “Moraxella catarrhalis strain O35E Hag protein (wild type) (natural protein)”, the fold adherence to collagen over the negative control (E. coli with pCC1.3) came out at 80 fold.
As to “Moraxella catarrhalis strain V1171 Hag protein (natural protein)”, the fold adherence to collagen over the negative control (E. coli with pCC1.3) was determined as 35 fold.
